Article doi:10.1101/2024.05.23.595586 (bioRxiv, 2024)

Molecular target: T1, MBP-TREM2 N79Q (MBP fused to TREM2 19-134) (human, UniProt Q9NZC2 19-134, N79Q)
T1 sequence (looked up): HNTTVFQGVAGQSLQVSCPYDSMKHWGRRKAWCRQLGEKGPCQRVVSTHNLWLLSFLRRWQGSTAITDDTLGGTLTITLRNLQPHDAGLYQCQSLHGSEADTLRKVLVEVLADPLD
Assay: crystal structure

binding result: binds
Binder: DAEFRHDS [Amyloid beta peptide (1-8)]
